Reference: doi:10.1101/2021.06.15.448513

Molecular target: PaPlaB, phospholipase B of Pseudomonas aeruginosa PA01 (gene pa2927) (P. aeruginosa PA01)
Experiment: SEC-MALS

“PaPlaB, phospholipase B of Pseudomonas aeruginosa PA01 (gene pa2927) (enzyme)” showed a stoichiometry N of 7.
